Source: PMC6915754, “Protein components of ribonucleoprotein granules from Drosophila germ cells oligomerize and show distinct spatial organization during germline development” (Scientific Reports, 2019)

B1: methylated Aubergine (sDMA-Aub) (natural protein, Drosophila, UniProt O76922 1-866, looked up)
chain: MNLPPNPVIARGRGRGRKPNNVEANRGFAPSLGQKSDPSHSEGNQASGGNGGGGDAQVGPSIEKSSLSAVQMHKSEGDPRGSVRGRRLITDLVYSRPPGMTSKKGVVGTHITVQANYFKVLKRPNWTIYQYRVDFTPDVEATRLRRSFLYEHKGILGGYIFDGTNMFCINQFKAVQDSPYVLELVTKSRAGENIEIKIKAVGSVQSTDAEQFQVLNLILRRAMEGLDLKLVSRYYYDPQAKINLENFRMQLWPGYQTSIRQHENDILLCSEICHKVMRTETLYNILSDAIRDSDDYQSTFKRAVMGMVILTDYNNKTYRIDDVDFQSTPLCKFKTNDGEISYVDYYKKRYNIIIRDLKQPLVMSRPTDKNIRGGNDQAIMIIPELARATGMTDAMRADFRTLRAMSEHTRLNPDRRIERLRMFNKRLKSCKQSVETLKSWNIELDSALVEIPARVLPPEKILFGNQKIFVCDARADWTNEFRTCSMFKNVHINRWYVITPSRNLRETQEFVQMCIRTASSMKMNICNPIYEEIPDDRNGTYSQAIDNAAANDPQIVMVVMRSPNEEKYSCIKKRTCVDRPVPSQVVTLKVIAPRQQKPTGLMSIATKVVIQMNAKLMGAPWQVVIPLHGLMTVGFDVCHSPKNKNKSYGAFVATMDQKESFRYFSTVNEHIKGQELSEQMSVNMACALRSYQEQHRSLPERILFFRDGVGDGQLYQVVNSEVNTLKDRLDEIYKSAGKQEGCRMTFIIVSKRINSRYFTGHRNPVPGTVVDDVITLPERYDFFLVSQAVRIGTVSPTSYNVISDNMGLNADKLQMLSYKMTHMYYNYSGTIRVPAVCHYAHKLAFLVAESINRAPSAGLQNQLYFL
modifications: symmetrically dimethylated arginines (sDMAs), positions not given
notes: Aubergine (Aub), Piwi family protein, Drosophila; full-length; monomer ~100 kDa; Oligomers migrate at 500-700 kDa; also called sDMA-containing Aub; source: Sf9 or TriEx Sf9 cells, baculovirus, co-expressed with Dart5(Csul) and Vls; for SEC also Ni-NTA); not shown: 3xFLAG, N-terminal, kept
B2: unmethylated Aubergine (natural protein, Drosophila, UniProt O76922 1-866, looked up)
chain: MNLPPNPVIARGRGRGRKPNNVEANRGFAPSLGQKSDPSHSEGNQASGGNGGGGDAQVGPSIEKSSLSAVQMHKSEGDPRGSVRGRRLITDLVYSRPPGMTSKKGVVGTHITVQANYFKVLKRPNWTIYQYRVDFTPDVEATRLRRSFLYEHKGILGGYIFDGTNMFCINQFKAVQDSPYVLELVTKSRAGENIEIKIKAVGSVQSTDAEQFQVLNLILRRAMEGLDLKLVSRYYYDPQAKINLENFRMQLWPGYQTSIRQHENDILLCSEICHKVMRTETLYNILSDAIRDSDDYQSTFKRAVMGMVILTDYNNKTYRIDDVDFQSTPLCKFKTNDGEISYVDYYKKRYNIIIRDLKQPLVMSRPTDKNIRGGNDQAIMIIPELARATGMTDAMRADFRTLRAMSEHTRLNPDRRIERLRMFNKRLKSCKQSVETLKSWNIELDSALVEIPARVLPPEKILFGNQKIFVCDARADWTNEFRTCSMFKNVHINRWYVITPSRNLRETQEFVQMCIRTASSMKMNICNPIYEEIPDDRNGTYSQAIDNAAANDPQIVMVVMRSPNEEKYSCIKKRTCVDRPVPSQVVTLKVIAPRQQKPTGLMSIATKVVIQMNAKLMGAPWQVVIPLHGLMTVGFDVCHSPKNKNKSYGAFVATMDQKESFRYFSTVNEHIKGQELSEQMSVNMACALRSYQEQHRSLPERILFFRDGVGDGQLYQVVNSEVNTLKDRLDEIYKSAGKQEGCRMTFIIVSKRINSRYFTGHRNPVPGTVVDDVITLPERYDFFLVSQAVRIGTVSPTSYNVISDNMGLNADKLQMLSYKMTHMYYNYSGTIRVPAVCHYAHKLAFLVAESINRAPSAGLQNQLYFL
notes: Aubergine (Aub), Piwi family protein, Drosophila; full-length; without sDMAs; source: Sf9 cells lacking dart5/vls bacmid, baculovirus; not shown: 3xFLAG, N-terminal, kept
B3: Tud domain 11 (amino acids 2335-2515 of Tudor) (domain or fragment, Drosophila, UniProt P25823 2335-2515, looked up)
chain: STVTGVQKPLEAELHNCVVVQFDGPMSFYVQMESDVPALEQMTDKLLDAEQDLPAFSDLKEGALCVAQFPEDEVFYRAQIRKVLDDGKCEVHFIDFGNNAVTQQFRQLPEELAKPARYSRHCELDASTISKCDAALLQSFIDTRFSETFQVEILATKGTGTHVVRLFYQSKNISEKLQECQ
notes: Tudor (Tud) protein, Drosophila, full length 2515 amino acids; Tud domain 11, amino acids 2335-2515; pET SUMO vector; source: E. coli BL21 (DE3), partially purified (Ni-NTA); not shown: His, N-terminal, kept
B4: Tud domain 4 (amino acids 1002-1192 of Tudor) (domain or fragment, Drosophila, UniProt P25823 1002-1192, looked up)
chain: SLDKPYALQEMKTPSKEAASLSWWLSPFQFYIVPKSVSAKYDNIMRDMREFYRQKQHQPLQLKVGSTVVVRQRKDNAILRATVTACNHMMRKYRVFCVDTGSLITVTSEDIWQLEQRFADPPCMAHRCSFHSVVTNYDPLYIVDRMETFVPVNAKVDCEFVSKEKSNQGSNTSSTCSYTVNIFVNGASLRD
notes: Tudor (Tud) protein, Drosophila, full length 2515 amino acids; Tud domain 4, amino acids 1002-1192; pET SUMO vector; source: E. coli BL21 (DE3), partially purified (Ni-NTA); not shown: His, N-terminal, kept
B5: Tud domain 1 (amino acids 1-217 of Tudor) (domain or fragment, Drosophila, UniProt P25823 1-217, looked up)
chain: MNGQARIALPSKVDLYITHVDHVGPYLKVYGHVNRDAASLISERIRNLLPTCFAIEPSWSVERQQALLIPGTFCIFKNINGPAPGDVEYRRIRVVSADLEGQSMRAEIDFVDFGYKRTVDSHDLMFPKQPKLLQNIPLHCFQYIVLGICSEWDQTDLAEVRRLVVNQIVKITVEPTQICDQKFASLRWKDFELNEFLVQQKQIGVSVDKQLMMDHCK
notes: Tudor (Tud) protein, Drosophila, full length 2515 amino acids; Tud domain 1, amino acids 1-217; pET SUMO vector; source: E. coli BL21 (DE3), partially purified (Ni-NTA); not shown: His, N-terminal, kept
B6: Tud domain 9 (amino acids 1976-2160 of Tudor) (domain or fragment, Drosophila, UniProt P25823 1976-2160, looked up)
chain: SLAVTTKAIITHVENTSRIYLQFSEKDSLMDIICEKLNGSKLQPKTEKAAVDDMCVVQFADDLEFYRSRILEVLEDDQYKVILIDYGNTTVVDKLYELPQEFTLIKPVAEICSMEPSAIFEKNKALTLTTFDALLDSCKGVVAVEFVNKSASPPVVRLTTKDKRSLKIYEHLQKLVQAELKLIQK
notes: Tudor (Tud) protein, Drosophila, full length 2515 amino acids; Tud domain 9, amino acids 1976-2160; pET SUMO vector; source: E. coli BL21 (DE3), partially purified (Ni-NTA); not shown: His, N-terminal, kept
B7: Tud domain 6 (amino acids 1299-1484 of Tudor) (domain or fragment, Drosophila, UniProt P25823 1299-1484, looked up)
chain: SFICPYPVVLSSFQALVVYTAKPYRVYVQPQAIVPSMQTLLDNMYEHYKAKGDSLKKFDVGQICAVRSSDGNWYRARISGKDSNAACFEVFYIDYGNTEEIKRDDIKALDAKFYEHASGFAVEINLPIGRPSNDTKLKARISEILEEKVVTIKSIEVRRSHLIADVILENNQSVIDLLKAEKLVPG
notes: Tudor (Tud) protein, Drosophila, full length 2515 amino acids; Tud domain 6, amino acids 1299-1484; pET SUMO vector; source: E. coli BL21 (DE3), partially purified (Ni-NTA); not shown: His, N-terminal, kept
B8: Tud domain 3 (amino acids 592-772 of Tudor) (domain or fragment, Drosophila, UniProt P25823 592-772, looked up)
chain: QLENDDAVEIRFIDSPSNFYVQKVANIGKFEQLMDEMFSYYNANQRVPDQLILGAPCIVKCDQEWYRAEILRVDDSVIVRHVDFGYEQNVKRHLIGHIAEKHLEMPRQAIKCCLKGFENSELSEDKITDQFEMLAEESNIRRRTFSVRIFRIEPDGLNVVNLLAKNLNVMKKLYKLSMPFE
notes: Tudor (Tud) protein, Drosophila, full length 2515 amino acids; Tud domain 3, amino acids 592-772; pET SUMO vector; source: E. coli BL21 (DE3), partially purified (Ni-NTA); not shown: His, N-terminal, kept

Molecular target: the molecule itself
Experiment: native gel or EMSA; blue native PAGE (BN-PAGE), NativePAGE 3-12% Bis-Tris gels, of Aub purified by anti-c-Myc immunoaffinity, several concentrations; western blot with anti-Flag antibody
Conditions: not given

Row | Binder | binding result
1 | B1 | binds
2 | B2 | binds

The binders below were run against T1, GFP-Aub (functional and methylated, from fly ovaries) (Drosophila, UniProt O76922 1-866, methylated (sDMAs), positions not given) (assay: pull-down; GFP-Aub from fly ovaries held on anti-GFP agarose beads; partially purified His-SUMO Tud domains added; 50 µl reactions, 4 °C, 30 min, binding buffer PBS + 0.05% IGEPAL CA-630; 4 washes; bound domains detected by anti-His-tag western blot). Conditions: both partners purified.
T1 construct: Aubergine (Aub), Piwi family protein, Drosophila; full-length; also called full-length Aub; source: purified from fly ovaries with anti-GFP beads
T1 sequence (looked up): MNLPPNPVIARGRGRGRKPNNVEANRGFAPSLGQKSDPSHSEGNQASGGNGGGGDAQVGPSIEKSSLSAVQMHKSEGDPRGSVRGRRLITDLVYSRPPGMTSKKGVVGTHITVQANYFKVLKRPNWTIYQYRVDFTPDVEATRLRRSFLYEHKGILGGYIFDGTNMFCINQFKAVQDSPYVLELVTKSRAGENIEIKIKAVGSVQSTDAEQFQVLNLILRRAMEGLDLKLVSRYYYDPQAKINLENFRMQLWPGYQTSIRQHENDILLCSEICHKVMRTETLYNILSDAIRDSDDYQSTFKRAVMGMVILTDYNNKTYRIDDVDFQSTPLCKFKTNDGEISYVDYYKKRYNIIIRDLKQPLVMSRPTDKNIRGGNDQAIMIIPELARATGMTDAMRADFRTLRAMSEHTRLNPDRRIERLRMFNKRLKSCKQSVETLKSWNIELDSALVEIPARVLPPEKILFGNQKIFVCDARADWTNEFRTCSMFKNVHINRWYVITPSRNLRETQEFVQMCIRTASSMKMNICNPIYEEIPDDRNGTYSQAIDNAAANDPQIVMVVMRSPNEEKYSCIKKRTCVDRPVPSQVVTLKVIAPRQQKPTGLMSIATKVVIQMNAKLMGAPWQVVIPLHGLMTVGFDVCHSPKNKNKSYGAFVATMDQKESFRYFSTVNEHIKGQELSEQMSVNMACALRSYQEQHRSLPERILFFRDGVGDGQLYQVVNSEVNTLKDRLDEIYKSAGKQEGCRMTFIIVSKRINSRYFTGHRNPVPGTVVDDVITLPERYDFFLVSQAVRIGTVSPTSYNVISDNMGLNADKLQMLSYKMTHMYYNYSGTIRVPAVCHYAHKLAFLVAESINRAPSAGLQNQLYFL

Row | Binder | binding result
3 | B3 | binds
4 | B4 | binds
5 | B5 | binds
6 | B6 | binds
7 | B7 | binds
8 | B8 | binds
